Test system: K562 CRISPRi cells
Assay: Constant region variant library pooled growth screen, K562
Assay type: cell-based, human
Settings: sgRNA constant region variants; activity relative to the original, un-modified constant region cr995
Summary of the method: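 Growth screens in K562 CRISPRi cells were harvested 4-8 days post-selection at >2000× library coverage. Each variant's phenotype was referenced to the unmodified constant region with the same targeting sequence.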

B1: cr505 (nucleic acid)
guide: GTTTAAGAGCTAAGCTGGAAACAGCATTGCAAGTTTAAATAGGGCTAGTCCGTTATCAACTTGAAAAAGTGGCACCGATTCGGTGCT
modifications: listed as DNA, chemistry not fully specified
  Mean relative activity: 0.7459

B2: cr875 (nucleic acid)
guide: GTTTAAGAGCTAAGCTGGAAACAGCATAGCAAGTTTAAATAAGGCTAGTCCGTTATCACCTGGAAACAGGGGCACCCAGTGGGTGCT
modifications: listed as DNA, chemistry not fully specified
  Mean relative activity: 0.743

B3: cr594 (nucleic acid)
guide: GTTTAAGAGCTAAGCTGGAAACAGCATTGCAAGTTTAAATAGGGCTAGTCCGCTATCAACTTGAAAAAGTGGCACCGAGTCGGTGCT
modifications: listed as DNA, chemistry not fully specified
  Mean relative activity: 0.7395

B4: cr278 (nucleic acid)
guide: GTTTAAGAGCTAAGCTGGAAACAGCATAGCAAGTTTAAATAAGGCTAGCCCGTTATCAACTTGAAAAAGTGGCACCGAATCGGTGCT
modifications: listed as DNA, chemistry not fully specified
  Mean relative activity: 0.7368

B5: cr341 (nucleic acid)
guide: GTTTAAGAGCTAAGCTGGAAACAGCATAGCAAGTTTAAATAAGTCTAGTACGTTATCAACTTGAAAAAGTGCTACCGAGTCGGTAGT
modifications: listed as DNA, chemistry not fully specified
  Mean relative activity: 0.7299

B6: cr426 (nucleic acid)
guide: GTTTAAGAGCTAAGCTGGAAACAGCATAGCAAATTTAAATAAGGCTAGTCCGCTATCAACTTGAAAAAGTGGCACCGAGTCGGTGCT
modifications: listed as DNA, chemistry not fully specified
  Mean relative activity: 0.7265

B7: cr763 (nucleic acid)
guide: GTTTAAGAGCTAAGCTGGAAACAGCATAGCAAGTTTAAATAAGGCTAGCCCGTTATCAACTTGAAAAAGTGGCACCGAGTCGGTGCT
modifications: listed as DNA, chemistry not fully specified
  Mean relative activity: 0.7264

B8: cr474 (nucleic acid)
guide: GTTTAAGAGCTAAGCTGGAAACAGCATAGCAAGTTTAAATAAGGCTAGTCCGTTATCAACTTGAAAAAGTGGCACCTAGTCGGTGCT
modifications: listed as DNA, chemistry not fully specified
  Mean relative activity: 0.7254

B9: cr457 (nucleic acid)
guide: GTTTAAGAGCTAAGCTGGAAACAGCATAGCAAGTTTAAATAAGGCTAGTCCGTTATCAACTTGAAAAAGTGGCACCGAGTCGGTTCT
modifications: listed as DNA, chemistry not fully specified
  Mean relative activity: 0.7254

B10: cr168 (nucleic acid)
guide: GTTTAAGAGCTAAGCTGGAAACAGCATAGCAAGTTTAAATAAGACTAGTTCGTTATCAAATTGAAAAATTGGCACCGAGTCGGTGCT
modifications: listed as DNA, chemistry not fully specified
  Mean relative activity: 0.7238

B11: cr555 (nucleic acid)
guide: GTTTAAGAGCTAAGCTGGAAACAGCATAGCAAGTTTAAATAAGTCTAGTACGTTATCAACTTGAAAAAGTGGCACCGAGTCGGTGCT
modifications: listed as DNA, chemistry not fully specified
  Mean relative activity: 0.719

B12: cr645 (nucleic acid)
guide: GTTTAAGAGCTAAGCTGGAAACAGCATAGCAAGTTTAAATAAGCCTAGTGCGTTATCAACGTGAAAACGTGGCACGGAGTCCGTGCT
modifications: listed as DNA, chemistry not fully specified
  Mean relative activity: 0.7179

B13: cr723 (nucleic acid)
guide: GTTTAAGAGCTAAGCTGGAAACAGCATAGCAAGTTTAAATAAGGCTAGTCCGTTATCAACCTGAAAAGGTGGCAGCGAGTCGCTGCT
modifications: listed as DNA, chemistry not fully specified
  Mean relative activity: 1.054

B14: cr635 (nucleic acid)
guide: GTTTAAGAGCTAAGCTGGAAACAGCATAGCAAGTTTAAATAAGGCTAGTCCGTTATCAACTTGAAAAAGTGGCACCGGGTCGGTGCT
modifications: listed as DNA, chemistry not fully specified
  Mean relative activity: 0.7174

B15: cr742 (nucleic acid)
guide: GTTTAAGAGCTAAGCTGGAAACAGCATAGCAAGTTTAAATAAGGATATTCCGTTATCAACTCGAAAGAGTGGCACCGAGTCGGTGCT
modifications: listed as DNA, chemistry not fully specified
  Mean relative activity: 0.7141

B16: cr539 (nucleic acid)
guide: GTTTAAGAGCTAAGCTGGAAACAGCATAGCAAGTTTAAATAAGTCTAGTACGTTATCAATTGGAAACAATGGCACCGAGTCGGTGCT
modifications: listed as DNA, chemistry not fully specified
  Mean relative activity: 0.7135

B17: cr725 (nucleic acid)
guide: GTTTAAGAGCTAAGCTGGAAACAGCATAGCAAATTTAAATAAGGCTAGTCCGTTATCAACTTGAAAAAGTGGCACCGAGTCGGTGCT
modifications: listed as DNA, chemistry not fully specified
  Mean relative activity: 0.7094

B18: cr522 (nucleic acid)
guide: GTTTAAGAGCTAAGCTGGAAACAGCATTGCAAGTTTAAATAAGGCTAGTCCGTTGTCAACTTGAAAAAGTGGCACCGAGCCGGTGCT
modifications: listed as DNA, chemistry not fully specified
  Mean relative activity: 0.7084

B19: cr015 (nucleic acid)
guide: GTTTACGAGCTAAGCTGGAAACAGCATAGCAAGTTTAAATAAGGCTAGTCCGTTATCAACTTGAAAAAGTGGCACCGAGTCGGTGCT
modifications: listed as DNA, chemistry not fully specified
  Mean relative activity: 0.7022

B20: cr117 (nucleic acid)
guide: GTTTAAGAGCTAAGCTGGAAACAGCATAGCAAGTTTAAATAAGGCTAGTCCGTTATCAACTTGGAAAAGTGGCACCGGGTCGGTGCT
modifications: listed as DNA, chemistry not fully specified
  Mean relative activity: 0.6966

B21: cr575 (nucleic acid)
guide: GTTTAAGAGCTAAGCTGGAAACAGCATAGCAAGTTTAAATAAGGCTAGTCCGTTATCAACTTGAAAAAGTGGCACGGAGTCGGTGCT
modifications: listed as DNA, chemistry not fully specified
  Mean relative activity: 0.6955

B22: cr734 (nucleic acid)
guide: GTTTAAGAGCTAAGCTGGAAACAGCATCGCAAGTTTAAATAAGGCTAGTCCGTTCTCAACTTGAAAAAGTCGCACCGAGTCGGTGCT
modifications: listed as DNA, chemistry not fully specified
  Mean relative activity: 0.6906

B23: cr292 (nucleic acid)
guide: GTTTAAGAGCTAAGCTGGAAACAGCATAGCAAGTTTAAATAAGGCTAGTCCGTTATCAACTTGAAAAAGTCGCACCGAGTCGGTGCT
modifications: listed as DNA, chemistry not fully specified
  Mean relative activity: 0.6902

B24: cr596 (nucleic acid)
guide: GTTTAAGAGCTAAGCTGGAAACAGCATAGCAAGTTTAAATAAGGCTAGTCCGTTATCAACTTGAAAAAGTGGGACCGAGTCGGTGCT
modifications: listed as DNA, chemistry not fully specified
  Mean relative activity: 0.69

B25: cr622 (nucleic acid)
guide: GTTTAAGAGCTAAGCTGGAAACAGCATAGCAAGTTTAAATAAGGCTAGTCCGTTATCAGCTGGAAACAGCGGCACCGAGTCGGTGCT
modifications: listed as DNA, chemistry not fully specified
  Mean relative activity: 1.099

B26: cr658 (nucleic acid)
guide: GTTTAAGAGCTAAGCTGGAAACAGCATAGCAAGTTTAAATAAGGATATTCCGTTATCAATTCGAAAGAATGGCACCGAGTCGGTGCT
modifications: listed as DNA, chemistry not fully specified
  Mean relative activity: 0.6883

B27: cr552 (nucleic acid)
guide: GTTTAAGAGCTAAGCTGGAAACAGCATAGCAAGTTTAAATAAGGCTAGTCCGATGGCAACTTGAAAAAGTGGCACCGAGTCGGTGCT
modifications: listed as DNA, chemistry not fully specified
  Mean relative activity: 0.6864

B28: cr501 (nucleic acid)
guide: GTTTAAGAGCTAAGCTGGAAACAGCATAGCAAGTTTAAATAAGGCTAGTCCGTTATCAACTTGAGAAAGTGTCACCGAGTCGGTGAT
modifications: listed as DNA, chemistry not fully specified
  Mean relative activity: 1.052

B29: cr877 (nucleic acid)
guide: GTTTAAGAGCTAAGCTGGAAACAGCATAGCAAGTTTAAATAAGGCTAGTCCGTTATCAACCTGAAAAGGTGCCACGGAGTCCGTGGT
modifications: listed as DNA, chemistry not fully specified
  Mean relative activity: 0.686

B30: cr437 (nucleic acid)
guide: GTTTAAGAGCTAAGCTGGAAACAGCATAGCAAGTTTAAATAAGGCTAGTCCGTTATCAACGTGAAAACGTGGCACACAGTGTGTGCT
modifications: listed as DNA, chemistry not fully specified
  Mean relative activity: 0.6854

B31: cr607 (nucleic acid)
guide: GTTTAAGAGCTAAGCTGGAAACAGCATAGCAAGTTTAAATAAGGCTAGTCCGTTATCAACTTGAAAAAGTGGCACCGAACCGGTGCT
modifications: listed as DNA, chemistry not fully specified
  Mean relative activity: 0.6847

From patent US20220259593A1, “CONTROL OF MAMMALIAN GENE DOSAGE USING CRISPR” (The Regents of the University of California, priority 2019, published 2022)
